Results as given in PMC3745516.

Target: CTEN (UniProt Q8IZW8)
Experiment: anti-Flag co-IP, anti-HA blot
Conditions: reference: HA-c-Cbl wild type; sites Y774

c-Cbl (from UniProt P22681) Y774F
binding against the reference: lost
